Legend:
Experiment in all cases: cell-based or functional assay
[1] = target: HCV 1b亚型 PR52B6M 毒株的 E2蛋白 (on virus) (hepatitis C virus subtype 1b, strain …)
[2] = target: T1, HCV 2a亚型 JFH1 毒株的 E2蛋白 (on virus) (hepatitis C virus subtype 2a, strain …, UniProt Q99IB8 384-750)
T1 sequence: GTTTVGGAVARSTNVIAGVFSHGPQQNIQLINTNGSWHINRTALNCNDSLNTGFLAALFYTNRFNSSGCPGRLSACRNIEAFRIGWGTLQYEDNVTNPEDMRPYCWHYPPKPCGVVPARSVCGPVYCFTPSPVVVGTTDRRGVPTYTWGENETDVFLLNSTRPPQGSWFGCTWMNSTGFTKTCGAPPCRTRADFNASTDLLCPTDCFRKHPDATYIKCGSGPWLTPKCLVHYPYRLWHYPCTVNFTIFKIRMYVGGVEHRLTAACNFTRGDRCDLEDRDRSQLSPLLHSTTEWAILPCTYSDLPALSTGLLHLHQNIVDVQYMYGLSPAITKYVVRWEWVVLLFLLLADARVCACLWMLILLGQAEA

[3] = target: HCV 1b亚型 PR79 毒株的 E2蛋白 (on virus) (hepatitis C virus subtype 1b, strain …)
[4] = target: HCV 2a亚型 PR79 毒株的 E2蛋白 (on virus) (hepatitis C virus subtype 2a, strain …)

Measured: 对 HCV真病毒的抑制率 (真病毒中和试验)

B1: 全人单克隆抗体7F2 (antibody, V domains shown)
VH: QVQLQQWGAGLLKPSETLSLTCAVYGGSFSGYYWNWIRQPPGKGLEWIGEINPRGTANHNPSLKSRVTISVGTSRNQFSLKLRAVTAADTAVYYCARGIHDTLTGYLAFYFDYWGQGTPVTVSS
VL: DIQMTQSPSSLSASVGDTVTITCRASQNIDRHLNWYQQKAGKAPKVLIYAASGLQSGVSSRFSGSGSGTEFTLTINDLEPEDFATYYCQQYYDTLGYTFGQGTKVEIK
> 90%: [1] | [2] | [3] | [4]
